Measurements from the nanobody polyreactivity screen of Harvey et al. (2022).

Assay: yeast display, Sf9 membrane polyspecificity reagent, FACS + sequencing; frameworks hold sequencing errors
Summary of the method: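 Synthetic nanobody libraries on Saccharomyces cerevisiae BJ5465 were galactose-induced for 36–48 hours, stained 1 hour at 4 °C with 10% biotinylated, detergent-solubilized Sf9 membrane reagent and enriched on streptavidin microbeads. FACS then separated cells into low and high (top ~1%) gates by anti-HA (expression) and streptavidin (reagent binding) fluorescence. Genes were colony-PCR amplified, MiSeq 2 × 250 sequenced and CDR-length filtered. A clone's polyreactivity label is that of its gate of origin.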

Sequence | polyreactivity (PSR sort gate)
QVQLVESGGGLVQAGGSLRLSCAASGRTFRGYSMGWYRQAPGKERELVAAISSSGGRTYYADSVKGRFTISRDNAKNTVYLQMNSLKPEDTAVYYCNAYYWSATWYFAAWDYYYWGQGTQVTVSS | high polyreactivity
QVQLVESGGGLVQAGGSLRLSCAASGRTFRHYAMGWYRQAPGKEREFVAAISRSGGSTRYADSVKGRFTISRDNAKNTVYLQMNSLKPEDTAVYYCAATSRSYNDYDYWGQGTQVTVSS | high polyreactivity
QVQLVESGGGLVQAGGSLRLSCAASGRTFRIYALGWYRQAPGTERELVATIDSGGSTNYADSVKGRFTISRDNAKNTVYFQMNSLKPEDTAVYYCNAEDKPWYYLAGQAEYDSWGQGTQVTVSS | low polyreactivity
QVQLVESGGGLVQAGGSLRLSCAASGRTFRIYAMGWYRQAPGKERELVAAISRSSTSTYYADSVKGRFTISRDNAKNTVYLQMNSLKPEDTAVYYCAAVVTVQYSQPYDHWGQGTQVTVSS | high polyreactivity
QVQLVESGGGLVQAGGSLRLSCAASGRTFRIYAMGWYRQAPGKERELVASISWSGGSTYYADSVKGRFTISRDNAKNTVYLQMNSLKPEDTAVYYCAADYPFIALYDYWGQGTQVTVSS | low polyreactivity
QVQLVESGGGLVQAGGSLRLSCAASGRTFRKKAMGWYRRAPGKERELVAAISASGTSTYYADSVKGRFTNSRDNAKISVYLQMISLKPEDTAVYYCAARSYGIYDYWGQGSQVTVSS | high polyreactivity
QVQLVESGGGLVQAGGSLRLSCAASGRTFRKYAMGWSRQAPGKERELVAAINRGGTTKYADSVKGRFTISRDNAKNTVYLQMNSLKPEDTAVYYCNAAYGGVFFYAYDYWGQGTQVTVSS | low polyreactivity
QVQLVESGGGLVQAGGSLRLSCAASGRTFRKYGMGWYRQAPGKERELVAAITRSGGSTYYADSVKGRFTISRDNAKHTVYLQMNSLKPEDTSVSYCARSPVVVGSFLSYDYWGQGTQVTVSS | high polyreactivity
QVQLVESGGGLVQAGGSLRLSCAASGRTFRLYALGWYRQAPGKERELVAAITRGGRTNYADSVTGRFTISRDNAKNTVYLQMNSLKPEDTAVYYCAARYVERHTDYYYWGQGTQVTVSS | low polyreactivity
QVQLVESGGGLVQAGGSLRLSCAASGRTFRLYAMGWYRQAPGKERELVAAISARGSSTYYADSVKGRFTISRDNAKNTVYLQMNSLKPEDTAVYYCAAKRSYPYGSGYWGQGTQVTVSS | high polyreactivity
QVQLVESGGGLVQAGGSLRLSCAASGRTFRLYAMGWYRQAPGKERELVASISRSVGSTYYADSVKGRFTISRDNAKNTVYLQMNSLKPVDTAVYYCAARSYIPGGWYGAYYYWGQGTQVTVSS | high polyreactivity
QVQLVESGGGLVQAGGSLRLSCAASGRTFRNNAMGWYRQAPGKERELVAAITSGGSTNYADSVKGRFTISRDNAKNTVYLQMNSLKPEDTAVYYCAKDFWYVTGGWSSGMDYWGQGTQVTVSS | low polyreactivity
QVQLVESGGGLVQAGGSLRLSCAASGRTFRNYAMGWYRQAPGKERELVAAISASGGSTYYADSVKGRFTISRDNAKNTVYLQMNSLKPEDTAVYYCAARYQGFGYRKYDYWGQGTQVTVSS | high polyreactivity
QVQLVESGGGLVQAGGSLRLSCAASGRTFRPYALGGYRPAPGKERELVAVITSGGSTYYADSVKGRFTISRDNAKNTVYLQMNSLKPEDTAVYYCARVYRSYAWSGYDYWGQGTQVTVSS | high polyreactivity
QVQLVESGGGLVQAGGSLRLSCAASGRTFRPYAMGWYRQAPGKEREFVARITWSGGTTYYADSVKGRFTISRDNAKNTVYLQMNRLKPEDTAVYYCAARVSRQTPVISYNYWGQGTQVTVSS | low polyreactivity
QVQLVESGGGLVQAGGSLRLSCAASGRTFRPYAMGWYRQAPGKERELDAAIDSSGTSTYYADSVKGRFTISRDNAKNTVYLQMNSLKPEDTAVYYCAKAWPDHWFSRYDYWGQGTQVTVSS | low polyreactivity
QVQLVESGGGLVQAGGSLRLSCAASGRTFRPYAMGWYRQAPGKERELVAAIDSSGTSTYYADSVKGRFTISRDNAKNTVYLKMNSLKPEDTAVYYCAKAWPDHWYSRYDYWGQGTQVTVSS | low polyreactivity
QVQLVESGGGLVQAGGSLRLSCAASGRTFRRNAMGWYRQAPGKERELVAAISFSAGRTYYADSVKGRFTISRDNAKNTVYLQMNSLKPEDTAVYYCNALRQDTGHYPYDYWGQGTQVTVSS | low polyreactivity
QVQLVESGGGLVQAGGSLRLSCAASGRTFRRNAMGWYRQAPGKERELVAAISWSGSRTYYADSVKGRFTISRDNAKKTVYLQMNSLKPEDTAVYYCAAEVWSTQGSATVQYDYLGQGTQVTVSS | high polyreactivity
QVQLVESGGGLVQAGGSLRLSCAASGRTFRRNAMGWYRQAPGKERELVASITGTGSTTYYADSVKGRFTISRDNAKNTVYLQMNSLKPEDTAVYYCAASSKYQDYWGQGTQVTVSS | high polyreactivity
QVQLVESGGGLVQAGGSLRLSCAASGRTFRRYAMGWYRQAPGKERELVAAITGAGSTYYADSVKGRFTISRDNAKNTVYFQMNSLKPEDTAVYYCAATPDPPHSYEYWGQGTKVTVSS | low polyreactivity
QVQLVESGGGLVQAGGSLRLSCAASGRTFRRYAMGWYRQAPGKERELVAAITYRGGSTYYADSVKGRFTISRDNAKNTVYLQMNSLKPEDTAVYYCNKQGNGQLGTTQGRYDYWGQGTQVTVSS | high polyreactivity

Sequence | polyreactivity (PSR sort gate)
QVQLVESGGGLVQAGGSLRLSCAASGRTFRRYAMGWYRQAPGKERELVAVISGGGTYYADSVKGRFTISRDNAKNTVYLQMNSLKPEDTAVYYCATDSYSSLYGYDYWGQGTQVTVSS | high polyreactivity
QVQLVESGGGLVQAGGSLRLSCAASGRTFRRYAMGWYRQAPGKERELVAVISRGGSTHYADSVKGRFTISRDNAKNTVYLQMNSLKPEDTAVYYCNAVVSVYTQDLDYWGQGTQVTVSS | high polyreactivity
QVQLVESGGGLVQAGGSLRLSCAASGRTFRRYVMGRYRQAPGKEMEMVARITTSGGNTYYADSVKGRFTISRDNAKITVYLQMNSMKPEVTAVYYCAADFLRTYKEYNLGYWGQGTQVTVSS | low polyreactivity
QVQLVESGGGLVQAGGSLRLSCAASGRTFRSYAMGWSRQAPGKGRELVAAISRSGGTTTYADSVKGRFTISRDNAKNTVYLQMNSLKPEDTAVYYCARGQNRYWQFHGAYDYWGQGTQVTVSS | high polyreactivity
QVQLVESGGGLVQAGGSLRLSCAASGRTFRSYDMGWYRQAPGKERELVAAISKRGGNTYYADSVKGRFTISRDNAKNTVYLQMNSLKPEDTAVYYCAKRVSGSPPTAGSLSDSWGQGTQVTVSS | high polyreactivity
QVQLVESGGGLVQAGGSLRLSCAASGRTFRTNAIGWYRQATGKERELVAAIRASTGSTYYADSVKGRFTISRDNAKNSVYLQMNSLKPEDTAFYYCAARLRRGLTATWYYYWGQGTQVTVSS | high polyreactivity
QVQLVESGGGLVQAGGSLRLSCAASGRTFRTNAMGWYRQAPGKERELVAAISTGGGIANYADSVKGRCTISRDNAKNTVYLQMNSLKPEDTAVYYCNADIYTWFQIGGYQYDYWGQGTQVTVSS | low polyreactivity
QVQLVESGGGLVQAGGSLRLSCAASGRTFRTNTMGWYRQAPGKERELVAAIRYIGGSTYYADSVKGRFTISRDNAKNTFYLLMNSLKPEDTAVYYCAAYRYGSRYGYEYWGQGTQVTVSS | high polyreactivity
QVQLVESGGGLVQAGGSLRLSCAASGRTFRVNAMGWYRQAPGKERELVAAITWRGGSTYYADSVKGRFTISRDNAKNTVYLQMNSLKPEDTAVYYCAARYSSSSRRQKSDYWGQGTQVTVSS | high polyreactivity
QVQLVESGGGLVQAGGSLRLSCAASGRTFRVYAMGWDRQAPGKERELVAAISGRGGSTYYADSVKGRFSISRDNAMNTVYLQMNSLKPEDTAVDYCAKSNPYLRLGEGNYWGQGTQVTVSS | high polyreactivity
QVQLVESGGGLVQAGGSLRLSCAASGRTFRVYAMGWYRQAPGKEREFVAAISYSGGRTNYADSVKGRFTISRDNAKNTVYLQMNSLKPEDTAVYYCARTKQEYTFGQFYLGDYWGQGTQVTVSS | low polyreactivity
QVQLVESGGGLVQAGGSLRLSCAASGRTFRVYTMGWYRQAPGKERELVAAISSRGGSTYYADSVKGRFTISRDNAKNTVYLQMNSLKPEDTAVYYCAAVSYYPARYGYWGQGTQVTVSS | high polyreactivity
QVQLVESGGGLVQAGGSLRLSCAASGRTFRWYAMGWDRQAPGKERELVAAISQSGGSTYYADSVKGRFTISRDNAKNTVYLQMNSLKPEDTAVYYCNAYPPYGGYAYGRGDYWGQGTQVTVSS | high polyreactivity
QVQLVESGGGLVQAGGSLRLSCAASGRTFRWYAMGWYRQAPGKERELVAAISSSGTRTYYADSVKGRFTISRDNAKNTVYLQMNSLKPEDTAVYYCAATWRVGYDYWGQGTQVTVSS | high polyreactivity
QVQLVESGGGLVQAGGSLRLSCAASGRTFRWYAMGWYRQAPGKERELVASITWSGGSTYYADSVKGRFTISRDNAKNTVYLQMNSLKPEDTAVYYCAARDRRGAYYYWGQGTQVTVSS | high polyreactivity
QVQLVESGGGLVQAGGSLRLSCAASGRTFRWYAMGWYRQAPGKESELVASISRGGSTSYADSVKGRFTISRDNAKNTVYLQMNSLKPEDTAVYYCAAGGFARTISYYWGQGTQVTVSS | high polyreactivity
QVQLVESGGGLVQAGGSLRLSCAASGRTFRWYTMGWYRQAPGKEREFVAAITWSGSSTDYADSVKGRFTISRDNAKNTVYLQMNSLKPEDTAVYYCAAENRRSRDDYWGQGTQVTVSS | high polyreactivity
QVQLVESGGGLVQAGGSLRLSCAASGRTFRYNAMGWYLQAPGKERELVAAITRRDGRTYYADSVKGRFTISRDNAKNTVYLQMNSLKPEDTAVYYCGVEYWVVNAQGYDYWGQGTQVTVSS | high polyreactivity
QVQLVESGGGLVQAGGSLRLSCAASGRTFRYNAMGWYRQAPGKERELVAAINWNGGSTYYADSVKGRFTISRDNAKNTVYLQMNSLKPEDTAVYYCAAYPGHGVTYWDRYYYWGQGTQVTVSS | high polyreactivity
QVQLVESGGGLVQAGGSLRLSCAASGRTFRYNAMGWYRQAPGKERELVAAISRSGGRTYYADSVKGRFTISRDNAKNTVYLQMNSLKPEDTAVYYCAAYYYTAGDSSSRYDYWGQGTQVTVSS | high polyreactivity
QVQLVESGGGLVQAGGSLRLSCAASGRTFRYNAMGWYRQAPGKERELVAVINSNGGSTYYADSVKGRFTISRDNAKNTVYLQMNSLKPEDTAVYYCAADYLRIQEYDYWGQGTQVTVSS | low polyreactivity
